Patent US20220177604A1
Read-outs that look alike come from different tables or passages of the source.

How the values were obtained:
[1] = biological target: biotinylated human FcRn (human) (UniProt P55899); test: FcRn binding ELISA at pH 6: biotinylated human FcRn on neutravidin, anti-human IgG-Fc-HRP
[2] = biological target: biotinylated human FcRn (human) (UniProt P55899); test: competition ELISA at pH 6: biotinylated human FcRn on neutravidin, competitor recombinant hIgG3 (m8), bound IgG3 detected
[3] = biological target: biotinylated human FcRn (human) (UniProt P55899); test: as above; remark: listed apart in the source
[4] = biological target: biotinylated human FcRn (human) (UniProt P55899); test: FcRn binding ELISA at pH 7: biotinylated human FcRn on neutravidin, anti-human IgG-Fc-HRP
[5] = biological target: biotinylated human FcRn (human) (UniProt P55899); test: as above; remark: listed apart in the source
[6] = biological target: biotinylated human FcRn (human) (UniProt P55899); test: competition ELISA at pH 6: biotinylated human FcRn on neutravidin, competitor recombinant hIgG3 (m8), bound IgG3 detected; remark: listed apart in the source
[7] = biological target: biotinylated human FcRn (human) (UniProt P55899); test: FcRn binding ELISA at pH 6: biotinylated human FcRn on neutravidin, anti-human IgG-Fc-HRP; remark: listed apart in the source
[8] = biological target: human IgE pre-bound on human basophils (human) (UniProt P01854); test: cell-based or functional assay

| EC50 (read off the curve) [1] | IC50 (read off the curve) [2] | IC50 (read off the curve) [3] | EC50 (read off the curve) [4] | EC50 (read off the curve) [5] | IC50 (read off the curve) [6] | EC50 (read off the curve) [7] | % of activated basophils (CCR3+CD63+) [8] | Substance |
| --- | --- | --- | --- | --- | --- | --- | --- | --- |
| 60 pM | 900 pM | 600 pM | 20 pM | 90 pM | 700 pM | 50 pM | – | Efgartigimod |
| – | – | – | – | – | – | – | 3% | Irrelevant antibody |
